Assay results: US20240294650A1 (Alector, published 2024)
Residue numbers refer to the chain shown, from its start.

T1: Full Axl (ECD domain of human Axl) (human, UniProt P30530 26-451)
T1 construct: also called human Axl ECD
T1 sequence: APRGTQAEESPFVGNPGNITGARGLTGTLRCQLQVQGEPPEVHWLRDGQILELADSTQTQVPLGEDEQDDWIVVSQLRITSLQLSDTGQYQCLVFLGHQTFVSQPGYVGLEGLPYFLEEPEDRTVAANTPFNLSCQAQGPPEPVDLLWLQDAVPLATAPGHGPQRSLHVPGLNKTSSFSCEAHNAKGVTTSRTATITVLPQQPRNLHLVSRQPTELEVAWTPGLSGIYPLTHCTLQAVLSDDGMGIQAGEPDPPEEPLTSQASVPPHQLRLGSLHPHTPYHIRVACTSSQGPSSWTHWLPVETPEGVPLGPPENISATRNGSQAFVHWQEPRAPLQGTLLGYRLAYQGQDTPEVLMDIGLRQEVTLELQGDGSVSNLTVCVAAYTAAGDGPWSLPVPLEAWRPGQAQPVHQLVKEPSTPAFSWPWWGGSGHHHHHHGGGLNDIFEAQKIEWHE

T2: endogenous murine MerTK on bone marrow-derived macrophages (mouse, UniProt Q60805 19-994)
T2 construct: whole, on cells; MFI on MerTK KO BMDM subtracted; also called BMDM WT-KO
T2 sequence (looked up): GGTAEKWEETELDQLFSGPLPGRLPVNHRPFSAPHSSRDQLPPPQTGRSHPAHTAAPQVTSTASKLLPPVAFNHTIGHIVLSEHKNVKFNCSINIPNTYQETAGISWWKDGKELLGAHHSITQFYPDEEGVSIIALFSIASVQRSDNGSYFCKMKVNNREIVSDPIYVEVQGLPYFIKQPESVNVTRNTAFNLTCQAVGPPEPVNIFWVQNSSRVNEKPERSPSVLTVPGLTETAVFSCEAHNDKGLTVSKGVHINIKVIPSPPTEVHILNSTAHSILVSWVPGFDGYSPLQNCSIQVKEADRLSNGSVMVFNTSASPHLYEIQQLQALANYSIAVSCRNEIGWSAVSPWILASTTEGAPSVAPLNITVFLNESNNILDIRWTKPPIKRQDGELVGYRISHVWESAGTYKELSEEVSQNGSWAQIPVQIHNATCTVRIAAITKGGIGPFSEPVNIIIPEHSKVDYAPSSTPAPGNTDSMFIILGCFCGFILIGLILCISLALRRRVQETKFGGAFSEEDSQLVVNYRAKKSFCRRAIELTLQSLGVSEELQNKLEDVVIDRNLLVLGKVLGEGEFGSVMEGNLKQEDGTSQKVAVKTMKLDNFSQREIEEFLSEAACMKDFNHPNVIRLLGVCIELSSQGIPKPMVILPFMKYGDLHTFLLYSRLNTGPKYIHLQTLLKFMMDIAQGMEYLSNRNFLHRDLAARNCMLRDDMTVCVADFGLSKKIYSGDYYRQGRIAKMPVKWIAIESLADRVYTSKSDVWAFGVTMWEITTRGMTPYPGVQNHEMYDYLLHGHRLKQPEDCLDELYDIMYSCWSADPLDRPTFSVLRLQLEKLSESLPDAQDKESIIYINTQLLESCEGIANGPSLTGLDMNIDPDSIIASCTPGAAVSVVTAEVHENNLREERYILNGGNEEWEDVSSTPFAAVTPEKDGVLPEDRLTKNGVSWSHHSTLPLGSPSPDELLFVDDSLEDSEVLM

B1: MTK-227 (antibody, human IgG1, V domains shown)
VH: EVKLVESGGGLVQPGGSLSLSCAASGFTFTDNYMTWVRQPPGKALEWLGFSRNKANGYTTEYSASVKGRFTISRDSSQSILYLQMNALRAEDSGTYYCARFPPHYYAGGYFDVWGTGTTVTVSS
VL: DIQMTQSPASLSASVGETVTITCRASENIYSYLAWYQQKQGKSPQLLVYNAKTLAEGVPSRFSGSGSGTQFSLKINSLQPADFGSYYCQHYYRTPPTFGGGTKLEIK
B2: MTK-219 (antibody, human IgG1, V domains shown)
VH: QVQLQQSGADLMKPGASVKLSCKATGNTFTGYWIEWVKQRPGHGLEWIGEILTGSGSTNYNERFKGKATFTADTSSNTAYMQLSSLTTEDSAIYYCAGSYFTNSWFPYWGQGSLVTVSA
VL: DIVLTQSPASLAVSLGQRATISCRASESVDSYGNSFMHWYQQKPGQPPKLLIYRAYTLESGIPARFSGSGSRTDFTLTINPVEADDVATYYCQQSNEDPRTFGGGTKLEIK
B3: MTK-220 (antibody, V domains shown)
VH: EVQLVESGGGLVKPGGSLKLSCAASGFTFSDYGMHWVRQAPEKGLEWVAFISGGSGTIYYEDTVKGRFTISRDNAKNTLFLQMTSLRSEDTAMYYCTRGGNYFDYWGQGTTLTVSS
VL: NIMLTQSPSSLAVSAGEKVTMTCKSSQSVLYSSNQKNYLAWYQQKPGQSPKLLIYWASTRESGVPDRFTGSGSGTDFTLTISNVQAEDLAVYYCHQYFSSWTFGGGTKLEIK
B4: MTK-213 (antibody, human IgG1, V domains shown)
VH: QVQLQQPGAELVKPGASVKMSCKASGYTFTSYWITWVKQRPGQGHEWIGEIYPGIGSTNYNEKFKSKATLTVDTSSRTAYMQLSSLTSEDSAVYFCARGAYTKYYFDYWGQGTTLTVSS
VL: DIVMTQSHKFMSTSVGDRVSITCKASQDVGDAVAWYQQKPGQTPKLLIYWASTRHTGVPDRFTGSGSGTDFTLTISNVQSEDLADYFCQQYSSYLMYTFGGGTKLEIK
B5: MTK-221 (antibody, human IgG1, V domains shown)
VH: QVTLKESGPGMLQSSQTLSLTCSFSGFSLSTSGMGVSWIRQPSGKGLEWLAHIYWDDDKRYNTSLQSRLTISKDTSRNQVFLKITSVDTADTATYFCGRLGAYSAFPYYFDYWGQGTTLTVSS
VL: DIQMTQSPSSLSASLGGKVTITCKASQDIHKHIAWYQHKPGKGPRLLIHYTSTLQPGIPSRFSGSGSGRDYSFSISNLEPEDLATYYCLQYDNLWTFGGGTKLEIK
B6: MTK-210 (antibody, human IgG1, V domains shown)
VH: QVQLQQSGPELVKPGASVKISCKASDYEFSRSWMNWVKQRPGKGLEWIGRIYPGDGDTNYNGKFKGKATLTADKSSNTAYMQLNSLTSEDSAVYFCARKGGYYYSISNYFDYWGQGTTLTVSS
VL: QIVLTQSPAIMSASPGVKVTMTCSASSSVSYMHWYQQKPGSSPRLLIYDTSNLASGVPVRFSGSGSGTSYSLTISRMEAEDAATYYCQQWSSYPPYTFGGGTKLEIK
B7: MTK-223 (antibody, human IgG1, V domains shown)
VH: DVQLQESGPGLVKPSQSLSLTCSVTGYSITSGYYWNWIRQFPGNKLEWMGYISYDGTNNYNPSLKNRISITRDTSENQFFLKLNSVTTEDTATYFCVRGAGYWGQGTTLTVSS
VL: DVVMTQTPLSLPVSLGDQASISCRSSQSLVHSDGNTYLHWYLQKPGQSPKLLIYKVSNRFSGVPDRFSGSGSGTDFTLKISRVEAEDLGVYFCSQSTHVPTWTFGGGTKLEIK
B8: MTK-229 (antibody, human IgG1, V domains shown)
VH: QVQLQQSGPELVKPGASVKISCKASGYEFSRSWMNWVKQRPGKGLEWIGRIYPGDGDTNYKGKLKGQATLTADKSSSTAYMQLSSLTFEDSAVYFCARGGGYYYDSRYEGFVYWGQGTVVTVSA
VL: QIVLTQSPAIMSASPGEEVTMTCSASSSVSYMHWYQQKSGTSPKRWIYDTSKLASGVSGRFSGSGSGTSYSLTISSMEAEDAATYYCQQWSSNPPITFGAGTKLELK
B9: MTK-228 (antibody, human IgG1, V domains shown)
VH: QDQLQQSGPELVKPGASVKISCKASGYSFTSYYIHWVKQRPGQGLEWVGWIFPGNGNTKYNERFKGKATLTADTSSSTAYMQLSSLTSEDSAVYYCARLGLIYALDYWGQGTSVTVSS
VL: DAVMTQTPLSLPVSLGDQASISCRSSQSLENSNGNTYLHWYLQKPGQSPQLLIYRVSNRFSGVLDRFSGSGSGTDFTLKISRVEAEDLGVYFCLQVTHVPFTFGSGTKLEIK
B10: MTK-218 (antibody, human IgG1, V domains shown)
VH: B9 VH with D2V, A16T, E46D, V48I, G56R, K59Q, R63K
VL: B9 VL with N35H, L64Q
B11: MTK-226 (antibody, human IgG1, V domains shown)
VH: B9 VH with D2V, V48I, R63N, K65R
VL: B9 VL with N31S, K79Q
B12: MTK-207 (antibody, human IgG1, V domains shown)
VH: QVQLKESGPGLVAPSQSLSITCTVSGISLTSYGVSWVRQPPGKGLEWLGIIWGDGSTNYHSALISRLSISKDNSKSQVFLKLNSLQTDDTATYYCAKGRYGNYEDWYFDVWGTGTTVTVSS
VL: DIQMTQSPASLSASVGETVTITCRASGNIHNYLAWYQQKQGKSPQLLVYNAKTLAAGVPSRFSGSGSGTQYSLKINSLQPEDFGSYYCQHFWSIPLTFGAGTKLELK
B13: MTK-211 (antibody, human IgG1, V domains shown)
VH: QVQLQQSGAELMKPGASVKLSCKATGYTFTGYWIEWVKQRPGHGLEWIGEILPGSGGSNYNEKFKGKATFTADTSSNTAYIQLSSLTTEDSAIYCCARGEPSYFSDAGFAYWGQGTLVTVSA
VL: QIVLTQSPAVMSASPGEKVTMTCSASSSITYMHWYQQKPGTSPKRWIYDTSKLASGVPARFSGSGSGTSYFLTISSMEAEDVATYYCHQRSTYPYTFGGGTKLEIM
B14: MTK-215 (antibody, human IgG1, V domains shown)
VH: EVQLVESGGGLVKPGGSLKLSCAASGFIFSDYGMHWVRQAPEKGLEWVAYISSGSSTIYYGDTVKGRFTISRDNAKNTLFLQMTSLRSEDTAMYYCAKGGRYGAMDYWGHGTSVTVSS
VL: DIVLTQSPATLSVTPGDSVSLSCRASQSISNNLHWYQQKSHESPRLLIKNPSQSISGIPSRFGARGSGTDFTLIINSVETEDLGVYFCQQSNSWPFTFGSGTKLEIK

target: T1, Full Axl (ECD domain of human Axl); test: SPR (data not shown)
Protocol: Binding of anti-MerTK antibodies of the present disclosure to these domain-swapped chimera or deletion mutants was tested by Surface Plasmon Resonance (SPR) using Carterra LSA. Purified anti-MerTK antibodies were immobilized in duplicate on a HC30M chip (Carterra) by amine coupling, following the manufacturer's instructions (described previously).
Supernatants containing the constructs were diluted 1:1 with running buffer containing 0.5 mg/mL BSA (HBS-TE, Carterra; BSA, Sigma) and injected over the immobilized antibodies. The surface was regenerated with 10 mM Glycine pH2.0 after each construct injection. Sensorgrams were analyzed using Carterra Epitope software to identify patterns of construct binding. Loss of binding to MerTK constructs with domains deleted or swapped in from Axl and/or gain of binding to Axl constructs with MerTK domains swapped in were evaluated. Data from these studies were used to construct a domain binding map for anti-MerTK antibodies and their binding to various domains of human MerTK.

binding result | Binder
no binding | B1
no binding | B2
no binding | B3
no binding | B4
no binding | B5
no binding | B6
no binding | B7
no binding | B8
no binding | B9
no binding | B10
no binding | B11

target: T2, endogenous murine MerTK on bone …; test: FACS, mouse BMDM, WT minus MerTK KO
Protocol: To determine whether recombinant anti-human MerTK antibodies of the present disclosure bind to human MerTK endogenously expressed on SK-MEL-5 cells and CHO cells overexpressing mouse MerTK (CHO-muMerTK OE cells), as compared to A375 and parental CHO cells as negative controls, the following experiments were performed. SK-MEL-5 cells, A375 cells, CHO-muMerTK OE cells, and CHO parental cells were plated at 100,000 cells/well. Anti-MerTK antibodies were added to the cells at 10 μg/ml. After 60 minutes on ice, cells were washed and then stained with PE-conjugated goat anti-human IgG antibody (Southern Biotech Cat #2040-09, Birmingham, AL) in the presence of Fc block solution on ice for 30 minutes, and then washed twice with cold FACS buffer (2% FBS in PBS). Mouse anti-human MerTK-PE conjugated (Biolegend, Clone 590H11G1E3) or anti-mouse MerTK-PE conjugated (ThermoFisher, Clone DS5MMER) antibodies were used as positive controls. Stained cells were acquired on a BD FACS Canto II cytometer and the mean fluorescence intensity (MFI) was calculated with FlowJo.
To confirm anti-MerTK antibody binding to endogenous murine MerTK, bone marrow-derived macrophages (BMDM) were isolated from MerTK wild type (WT) and knockout (KO) mice (The Jackson Laboratory, Cat #011122) using standard protocols. Briefly, cells isolated from the bone marrow were plated in the presence of 50 ng/ml M-CSF (R&D Systems, Cat #416-ML) for seven days to allow for differentiation into macrophages. Cell staining, FACs, and MFI were performed and calculated as described above.

MFI | Binder
989 MFI | B12
5020 MFI | B1
6180 MFI | B2
757 MFI | B3
4490 MFI | B13
8450 MFI | B4
466 MFI | B14
316 MFI | B7
2870 MFI | B8
7370 MFI | B9
11800 MFI | B10
10400 MFI | B11
